This passage reports screen value results from paper PMC12102759 (2025).

B1: CBL peptide 538-553 (E3 ubiquitin-protein ligase CBL), 16-mer library wild type / YES SH3 (YES1 SH3 domain, residues 90-152) (parent complex)
chain 1: TLRDLPPPPPPDRPYS
chain 2: not shown

This experiment covers variants of B1. Put plainly: proteomic peptide phage display deep mutational scan (ProP-PD DMS): M13 P8 16-mer library selected against immobilised GST-tagged bait for four days (rounds), NGS of the eluted pools per day and pseudo-replica; bait immobilised on MaxiSorp plates (10 µg), library pre-cleared on GST, 2 h binding at 4 °C, five washes; one round per day, days 1-4; value from days 2 and 3.
For the variant chain 1 D12I, the screen value was 0.00442 average fractional NGS count over selection days 2 and 3 (reads of this peptide / all reads for the bait, averaged over …. With chain 1 D12P the figure was 0.00103 average fractional NGS count over selection days 2 and 3 (reads of this peptide / all reads for the bait, averaged over …; with chain 1 D12Y, 0.00156 average fractional NGS count over selection days 2 and 3 (reads of this peptide / all reads for the bait, averaged over ….

Regarding chain 1 R3D, the screen value is 8.49e-05 average fractional NGS count over selection days 2 and 3 (reads of this peptide / all reads for the bait, averaged over …. With chain 1 R3Y the figure was 0.000386 average fractional NGS count over selection days 2 and 3 (reads of this peptide / all reads for the bait, averaged over …. With chain 1 R3A the figure was 0.00047 average fractional NGS count over selection days 2 and 3 (reads of this peptide / all reads for the bait, averaged over …. Take chain 1 R3V: the screen value was 0.000502 average fractional NGS count over selection days 2 and 3 (reads of this peptide / all reads for the bait, averaged over …. The value for chain 1 R3S was 0.000276 average fractional NGS count over selection days 2 and 3 (reads of this peptide / all reads for the bait, averaged over …; that for chain 1 R3W was 0.00019 average fractional NGS count over selection days 2 and 3 (reads of this peptide / all reads for the bait, averaged over …. On to chain 1 R3M, for which the screen value was 0.000204 average fractional NGS count over selection days 2 and 3 (reads of this peptide / all reads for the bait, averaged over ….

Regarding chain 1 R3E, the screen value was 0.000121 average fractional NGS count over selection days 2 and 3 (reads of this peptide / all reads for the bait, averaged over …. With chain 1 R3G, the screen value is 0.00132 average fractional NGS count over selection days 2 and 3 (reads of this peptide / all reads for the bait, averaged over ….

Turning to chain 1 R3P, the screen value is 8.03e-05 average fractional NGS count over selection days 2 and 3 (reads of this peptide / all reads for the bait, averaged over ….

Consider chain 1 R3H, for which the screen value is 0.000385 average fractional NGS count over selection days 2 and 3 (reads of this peptide / all reads for the bait, averaged over …. With chain 1 R3L the figure was 7.89e-05 average fractional NGS count over selection days 2 and 3 (reads of this peptide / all reads for the bait, averaged over …; with chain 1 R3N, 0.000239 average fractional NGS count over selection days 2 and 3 (reads of this peptide / all reads for the bait, averaged over …. With chain 1 S16P the figure was 0.00387 average fractional NGS count over selection days 2 and 3 (reads of this peptide / all reads for the bait, averaged over …. Consider chain 1 S16T, for which the screen value is 0.000743 average fractional NGS count over selection days 2 and 3 (reads of this peptide / all reads for the bait, averaged over ….

For chain 1 S16W, the screen value is 0.00897 average fractional NGS count over selection days 2 and 3 (reads of this peptide / all reads for the bait, averaged over …. With chain 1 S16M the figure was 0.00227 average fractional NGS count over selection days 2 and 3 (reads of this peptide / all reads for the bait, averaged over …; with chain 1 S16F, 0.00399 average fractional NGS count over selection days 2 and 3 (reads of this peptide / all reads for the bait, averaged over …. With chain 1 S16D the figure was 0.00258 average fractional NGS count over selection days 2 and 3 (reads of this peptide / all reads for the bait, averaged over …. With chain 1 S16I the figure was 0.00716 average fractional NGS count over selection days 2 and 3 (reads of this peptide / all reads for the bait, averaged over …; with chain 1 S16R, 0.000301 average fractional NGS count over selection days 2 and 3 (reads of this peptide / all reads for the bait, averaged over …; with chain 1 S16G, 0.000561 average fractional NGS count over selection days 2 and 3 (reads of this peptide / all reads for the bait, averaged over …. For chain 1 S16K, the screen value is 0.00025 average fractional NGS count over selection days 2 and 3 (reads of this peptide / all reads for the bait, averaged over …. With chain 1 S16V the figure was 0.00134 average fractional NGS count over selection days 2 and 3 (reads of this peptide / all reads for the bait, averaged over …; with chain 1 S16E, 0.000858 average fractional NGS count over selection days 2 and 3 (reads of this peptide / all reads for the bait, averaged over …. The value for chain 1 S16Y was 0.000405 average fractional NGS count over selection days 2 and 3 (reads of this peptide / all reads for the bait, averaged over …; that for chain 1 Y15R was 0.000143 average fractional NGS count over selection days 2 and 3 (reads of this peptide / all reads for the bait, averaged over …; that for chain 1 Y15V was 0.00865 average fractional NGS count over selection days 2 and 3 (reads of this peptide / all reads for the bait, averaged over …. With chain 1 Y15L the figure was 0.00132 average fractional NGS count over selection days 2 and 3 (reads of this peptide / all reads for the bait, averaged over …; with chain 1 Y15W, 0.000273 average fractional NGS count over selection days 2 and 3 (reads of this peptide / all reads for the bait, averaged over …. For the variant chain 1 Y15A, the screen value was 0.00482 average fractional NGS count over selection days 2 and 3 (reads of this peptide / all reads for the bait, averaged over …. The value for chain 1 Y15G was 0.000388 average fractional NGS count over selection days 2 and 3 (reads of this peptide / all reads for the bait, averaged over …; that for chain 1 Y15K was 0.000227 average fractional NGS count over selection days 2 and 3 (reads of this peptide / all reads for the bait, averaged over …. As to chain 1 Y15I, the screen value was 0.000521 average fractional NGS count over selection days 2 and 3 (reads of this peptide / all reads for the bait, averaged over …. Turning to chain 1 Y15E, the screen value is 9.17e-05 average fractional NGS count over selection days 2 and 3 (reads of this peptide / all reads for the bait, averaged over …. The value for chain 1 Y15S was 0.000415 average fractional NGS count over selection days 2 and 3 (reads of this peptide / all reads for the bait, averaged over …; that for chain 1 Y15H was 0.0004 average fractional NGS count over selection days 2 and 3 (reads of this peptide / all reads for the bait, averaged over …. In the case of chain 1 Y15F, the screen value is 0.00101 average fractional NGS count over selection days 2 and 3 (reads of this peptide / all reads for the bait, averaged over ….

For the variant chain 1 P11H, the screen value was 0.000426 average fractional NGS count over selection days 2 and 3 (reads of this peptide / all reads for the bait, averaged over …. The value for chain 1 P11N was 9.7e-05 average fractional NGS count over selection days 2 and 3 (reads of this peptide / all reads for the bait, averaged over …; that for chain 1 P11Q was 0.000805 average fractional NGS count over selection days 2 and 3 (reads of this peptide / all reads for the bait, averaged over …; that for chain 1 P11W was 0.000174 average fractional NGS count over selection days 2 and 3 (reads of this peptide / all reads for the bait, averaged over …. In the case of chain 1 P11I, the screen value was 0.00017 average fractional NGS count over selection days 2 and 3 (reads of this peptide / all reads for the bait, averaged over …. With chain 1 P11F the figure was 0.00176 average fractional NGS count over selection days 2 and 3 (reads of this peptide / all reads for the bait, averaged over …; with chain 1 P11L, 0.000447 average fractional NGS count over selection days 2 and 3 (reads of this peptide / all reads for the bait, averaged over …; with chain 1 P11V, 0.000274 average fractional NGS count over selection days 2 and 3 (reads of this peptide / all reads for the bait, averaged over …. Consider chain 1 P11M, for which the screen value is 0.000374 average fractional NGS count over selection days 2 and 3 (reads of this peptide / all reads for the bait, averaged over ….

As to chain 1 P11T, the screen value was 0.00257 average fractional NGS count over selection days 2 and 3 (reads of this peptide / all reads for the bait, averaged over …. chain 1 P11A: the screen value was 0.000414 average fractional NGS count over selection days 2 and 3 (reads of this peptide / all reads for the bait, averaged over …. The value for chain 1 P11S was 4.62e-05 average fractional NGS count over selection days 2 and 3 (reads of this peptide / all reads for the bait, averaged over …; that for chain 1 P11D was 7.75e-05 average fractional NGS count over selection days 2 and 3 (reads of this peptide / all reads for the bait, averaged over …; that for chain 1 P14E was 0.000212 average fractional NGS count over selection days 2 and 3 (reads of this peptide / all reads for the bait, averaged over ….

On to chain 1 P14H, for which the screen value is 0.00144 average fractional NGS count over selection days 2 and 3 (reads of this peptide / all reads for the bait, averaged over …. The value for chain 1 P14W was 0.00023 average fractional NGS count over selection days 2 and 3 (reads of this peptide / all reads for the bait, averaged over …; that for chain 1 P14A was 0.000568 average fractional NGS count over selection days 2 and 3 (reads of this peptide / all reads for the bait, averaged over …; that for chain 1 P14G was 0.000593 average fractional NGS count over selection days 2 and 3 (reads of this peptide / all reads for the bait, averaged over ….

As to chain 1 P14T, the screen value was 0.0012 average fractional NGS count over selection days 2 and 3 (reads of this peptide / all reads for the bait, averaged over …. With chain 1 P14M the figure was 0.00532 average fractional NGS count over selection days 2 and 3 (reads of this peptide / all reads for the bait, averaged over …; with chain 1 P14Y, 0.00118 average fractional NGS count over selection days 2 and 3 (reads of this peptide / all reads for the bait, averaged over …; with chain 1 P9T, 0.000558 average fractional NGS count over selection days 2 and 3 (reads of this peptide / all reads for the bait, averaged over ….

As to chain 1 P9L, the screen value is 0.000514 average fractional NGS count over selection days 2 and 3 (reads of this peptide / all reads for the bait, averaged over …. With chain 1 P9R the figure was 8.13e-05 average fractional NGS count over selection days 2 and 3 (reads of this peptide / all reads for the bait, averaged over …; with chain 1 P9Q, 0.000144 average fractional NGS count over selection days 2 and 3 (reads of this peptide / all reads for the bait, averaged over …; with chain 1 P9S, 0.000162 average fractional NGS count over selection days 2 and 3 (reads of this peptide / all reads for the bait, averaged over ….

chain 1 P9V: the screen value is 0.000276 average fractional NGS count over selection days 2 and 3 (reads of this peptide / all reads for the bait, averaged over ….

As to chain 1 P9N, the screen value was 0.000239 average fractional NGS count over selection days 2 and 3 (reads of this peptide / all reads for the bait, averaged over …. chain 1 L5F: the screen value is 6.9e-05 average fractional NGS count over selection days 2 and 3 (reads of this peptide / all reads for the bait, averaged over …. The value for chain 1 L5V was 6.39e-05 average fractional NGS count over selection days 2 and 3 (reads of this peptide / all reads for the bait, averaged over …; that for chain 1 L5Q was 0.000137 average fractional NGS count over selection days 2 and 3 (reads of this peptide / all reads for the bait, averaged over …; that for chain 1 P6S was 0.000101 average fractional NGS count over selection days 2 and 3 (reads of this peptide / all reads for the bait, averaged over ….

With chain 1 P6M, the screen value is 0.000156 average fractional NGS count over selection days 2 and 3 (reads of this peptide / all reads for the bait, averaged over …. With chain 1 P6H the figure was 0.000126 average fractional NGS count over selection days 2 and 3 (reads of this peptide / all reads for the bait, averaged over ….
